From patent US20220096654A1, “PYRROLOBENZODIAZEPINE-ANTIBODY CONJUGATES AND USES THEREOF” (ADC THERAPEUTICS SA, priority 2020, published 2022)

Tests used:
Format in all cases: in vivo
human CD45+ cells [1] = assay: Allogeneic stem cell transplant model in humanized NSG mice, comparison of payloads; details: 1 mg/kg; for mean % hCD45+ engraftment in the bone marrow: 8 weeks after allogeneic GFP+ cells, PBS 14.12%
Experimental: (§1) Adult NSG mice (Charles River Laboratories) were sublethally irradiated with 2.5 Gy in a ^137Cs irradiator. On the following day, mice were injected with 0.5×10^6 freshly thawed cryopreserved human CD34+ cells from a health donor were injected via the tail vein in 150 μL PBS using a 29 gauge MicroFine Plus insulin syringe (BD). Engraftment of human cells in the blood was assessed periodically from 6 weeks after transplantation. At 10 weeks post-transplant, humanized NSG mice were assigned into cohorts with similar median human CD45+ cell engraftment in the blood, as determined by flow cytometry. Mice were injected with PBS or 1 mg/kg YTH24.5-B1. Sixteen 16 days after treatment, mice were transplanted with 0.5×10^6 GFP+CD34+ cells from another healthy donor. Irradiated NSG […] were also transplanted with the GFP+CD34+ from the allogeneic healthy donor as a control for engraftment of the GFP+CD34+ cells. 8 weeks after transplantation of GFP+ cells, mice were culled and blood, spleen and bone marrow taken for analysis by flow cytometry.
Experimental schedule is as previously described in example 16 but with the following modifications. Humanized NSG mice at 10 weeks post-transplant were injected with PBS or 1 mg/kg YTH24.5-B1, YTH54.12-B1, Isotype-B1, YTH24.5-B4 and Isotype-3376. Isotype-B2 and YTH24.5-B2 was given at a dose of 5 mg/kg. Transplantation of 0.5×10^6 GFP+CD34+ from an allogeneic human donor and analysis at 8 weeks post-transplant of GFP+ cells was carried out as previously described.

fLuc+ OCIM1 cells [2] = assay: AML model in NSG mice, treatment the day after cell injection; details: for tumor (bioluminescence) signal: 1 mg/kg or 5 mg/kg i.v. the day after OCIM1 injection; for mice developing tumor / tumor signal: 1 mg/kg or 5 mg/kg i.v., cohorts of 5 mice
Experimental: (§2) NSG mice were transplanted with 7.5×10^6 luciferase expressing fLuc+ OCIM1 cells i.v. On the following day, unconjugated rat IgG2b antibodies or ADCs were injected i.v. via a tail vein at a dose of 1 mg/kg or 5 mg/kg. Mice were regularly monitored for signs of morbidity for the duration of the experiment. For imaging, mice were injected intraperitoneally with 200 μl of 15 mg/mL D-luciferin (Regis Technologies) in PBS. Mice were subsequently anesthetized with 4% isoflurane and maintained at 2% isoflurane. Ten minutes after injection of D-luciferin, mice were placed with anterior side up inside a IVIS Lumina III (PerkinElmer). A sub-saturating image was captured using the auto-exposure setting in the Living Image software (v4.5). Quantification and preparation of images was also carried out using the same software.

fLuc+ OCIM1 cells [3] = assay: Established AML model in NSG mice, treatment 10 days post-injection; details: cohorts of 5 mice, all tumor-bearing
Experimental: as §2, with “7.5×10^6” for “7.5×10^6 luciferase expressing”, “At 10 days post-injection of AML cells,” for “On the following day,”, “antibody” for “rat IgG2b antibodies”

human CD45+ cells [4] = assay: Allogeneic stem cell transplant model in humanized NSG mice (YTH24.5-B1 conditioning); details: 1 mg/kg
Experimental: as §1

Row | Molecule | percentage GFP+ human CD34+ cells in the bone marrow (mean) (human CD45+ cells [1]) [%] | mean % hCD45+ engraftment in the bone marrow (human CD45+ cells [1]) [%] | tumor (bioluminescence) signal (fLuc+ OCIM1 cells [2]) | mice developing tumor / tumor signal (fLuc+ OCIM1 cells [2]) | mice alive at 60 days (fLuc+ OCIM1 cells [3]) | mean % hCD45 engraftment in the bone marrow (human CD45+ cells [4]; 8 weeks after allogeneic GFP+ cells, PBS 37.5%) [%] | percentage GFP+hCD45+ cells of all human CD45+ cells in bone marrow (mean) (human CD45+ cells [4]; PBS 2.1%, irradiation control 41.3%) [%] | GFP+hCD34+ cells within the human CD34+ compartment in the bone marrow (mean) (human CD45+ cells [4]; PBS 3.7%) [%]
1 | YTH54.12-B1: rat IgG2b anti-CD45 antibody YTH54.12 conjugated to cleavable PBD drug-linker B1 (drawing 43) (conjugate) heavy: EVQLVESGGGLVQPGGSMKLSCAASGFTFSDYYMAWVRQAPKKGLEWVASMSFAGSSTYYGDSVKGRFTISRDNAKTTLYLQMNSLRSEDTATYYCARMYTTDYYLYWYFDFWGPGTMVTVSSAQTTAPSVYPLAPGCGDTTSSTVTLGCLVKGYFPEPVTVTWNSGALSSDVHTFPAVLQSGLYTLTSSVTSSTWPSQTVTCNVAHPASSTKVDKKVERRNGGIGHKCPTCPTCHKCPVPELLGGPSVFIFPPKPKDILLISQNAKVTCVVVDVSEEEPDVQFSWFVNNVEVHTAQTQPREEQYNSTFRVVSALPIQHQDWMSGKEFKCKVNNKALPSPIEKTISKPKGLVRKPQVYVMGPPTEQLTEQTVSLTCLTSGFLPNDIGVEWTSNGHIEKNYKNTEPVMDSDGSFFMYSKLNVERSRWDSRAPFVCSVVHEGLHNHHVEKSISRPPGK light: DVQMTQSPSYLAASPGESVSISCKASKSISNYLAWYQQKPGEANKILIYSGSTLQSGTPSRFSGSGSGTDFSLTIRNLEPEDFAVYYCQQYDEKPLTFGSGTKLEIKRADAAPTVSIFPPSMEQLTSGGATVVCFVNNFYPRDISVKWKIDGSEQRDGVLDSVTDQDSKDSTYSMSSTLSLTKVEYERHNLYTCEVVHKTSSSPVVKSFNRNEC | 69.40 | 16.34 | increasing tumor signal from day 18 onwards | 1 out of 5 | – | – | – | –
2 | YTH24.5-B1: rat IgG2b anti-CD45 antibody YTH24.5 conjugated to cleavable PBD drug-linker B1 (drawing 43) (conjugate) heavy: QVNLLQSGAALVKPGASVKLSCKASSYTFTDYYIHWVKQSHGKTLEWIGYINPKSGFTNYNEKFRRKATLTVDKSTNTAYMDISRLTSEDSATYYCTRRTGVIPMDAWGQGASVTVSSAQTTAPSVYPLAPGCGDTTSSTVTLGCLVKGYFPEPVTVTWNSGALSSDVHTFPAVLQSGLYTLTSSVTSSTWPSQTVTCNVAHPASSTKVDKKVERRNGGIGHKCPTCPTCHKCPVPELLGGPSVFIFPPKPKDILLISQNAKVTCVVVDVSEEEPDVQFSWFVNNVEVHTAQTQPREEQYNSTFRVVSALPIQHQDWMSGKEFKCKVNNKALPSPIEKTISKPKGLVRKPQVYVMGPPTEQLTEQTVSLTCLTSGFLPNDIGVEWTSNGHIEKNYKNTEPVMDSDGSFFMYSKLNVERSRWDSRAPFVCSVVHEGLHNHHVEKSISRPPGK light: DVVMTQTPVSLSVSLGGQVSISCRSSQSFVSSDGNTYLNWYLQKPGQSPQLLIYKVSNRLSGVPDRFSGSGSGTDFTLKISRVEHDDLGVYYCGQASKIPLTFGSGTKLEIKRADAAPTVSIFPPSMEQLTSGGATVVCFVNNFYPRDISVKWKIDGSEQRDGVLDSVTDQDSKDSTYSMSSTLSLTKVEYERHNLYTCEVVHKTSSSPVVKSFNRNEC | 59.13 | 16.45 | Low/absent tumor signal | 1 out of 5 | 4/5 | 9.08 | 29.0 | 56.6
